Assay results from patent US20210054027.

MMP-9 (recombinant human catalytic domain), sequence (chain, as listed by the source): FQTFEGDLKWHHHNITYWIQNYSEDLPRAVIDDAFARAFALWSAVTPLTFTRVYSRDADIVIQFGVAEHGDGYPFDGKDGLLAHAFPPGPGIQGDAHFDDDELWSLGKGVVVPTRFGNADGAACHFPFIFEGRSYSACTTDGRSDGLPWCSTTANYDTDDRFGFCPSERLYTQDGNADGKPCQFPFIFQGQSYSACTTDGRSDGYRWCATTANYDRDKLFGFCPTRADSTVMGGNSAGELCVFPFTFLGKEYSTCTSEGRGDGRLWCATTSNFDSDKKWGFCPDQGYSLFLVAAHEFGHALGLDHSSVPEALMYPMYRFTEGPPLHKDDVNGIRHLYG
Rho-KFDFCyclic, sequence (chain, as listed by the source): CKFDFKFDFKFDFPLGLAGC
Rho-KLDLCyclic, sequence (chain, as listed by the source): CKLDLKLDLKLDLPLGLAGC

Substance | enzymatic cleavage of progelator (visible aggregation, TEM fibers) (Rho-KFDFCyclic) | enzymatic cleavage of progelator (LCMS, 5 hr) (KFDFCyclic) | enzymatic cleavage of progelator (visible aggregation, TEM fibers) (Rho-KLDLCyclic) | enzymatic cleavage of progelator (data not shown) (KLDLCyclic) | enzymatic cleavage of progelator (TEM fibers, CD) (Rho-KFDFCyclic) | enzymatic cleavage of progelator (TEM fibers, CD) (Rho-KLDLCyclic)
MMP-9 (recombinant human catalytic domain) | Enzymatic cleavage by active MMP-9 and elastase (FIGS. 20a-20d) induced visible aggregation in the reaction vial and entangled fibrous meshes by TEM, whereas denatured enzymes elicited no response | KFDFCyclic and KLDLCyclic (data not shown) were treated with MI-associated enzymes, MMP-9 and elastase to confirm enzyme responsiveness | Enzymatic cleavage by active MMP-9 and elastase (FIGS. 20a-20d) induced visible aggregation in the reaction vial and entangled fibrous meshes by TEM, whereas denatured enzymes elicited no response | KFDFCyclic and KLDLCyclic (data not shown) were treated with MI-associated enzymes, MMP-9 and elastase to confirm enzyme responsiveness |  | 
Thermolysin |  |  |  |  | Despite the promiscuous activity of thermolysin, incubation with Rho-KLDLCyclic and Rho-KFDFCyclic induced fiber formation by TEM | Despite the promiscuous activity of thermolysin, incubation with Rho-KLDLCyclic and Rho-KFDFCyclic induced fiber formation by TEM
